The results in this text go back to paper PMC10458775, “A Combined Plasmonic and Electrochemical Aptasensor Based on Gold Nanopit Arrays for the Detection of Human Serum Albumin”.

The target of the data set is human serum albumin (HSA) (Homo sapiens, UniProt P02768 25-609). In words: alternating current voltammetry (electrochemical aptasensor); gold nanopit array with 6-MCH; HSA up to 600 uM; LOD 0.08 nM (not a Kd); 10 mM Tris, 150 mM NaCl, 5 mM KCl, pH 7.4, room temperature; 30 min HSA incubation; aptamer immobilized in 10 mM Tris, 1.5 M NaCl, 1 mM MgCl2, pH 7.4. The note with it: label: 5' ferrocene.
Chain of human serum albumin (HSA) (P02768 25-609): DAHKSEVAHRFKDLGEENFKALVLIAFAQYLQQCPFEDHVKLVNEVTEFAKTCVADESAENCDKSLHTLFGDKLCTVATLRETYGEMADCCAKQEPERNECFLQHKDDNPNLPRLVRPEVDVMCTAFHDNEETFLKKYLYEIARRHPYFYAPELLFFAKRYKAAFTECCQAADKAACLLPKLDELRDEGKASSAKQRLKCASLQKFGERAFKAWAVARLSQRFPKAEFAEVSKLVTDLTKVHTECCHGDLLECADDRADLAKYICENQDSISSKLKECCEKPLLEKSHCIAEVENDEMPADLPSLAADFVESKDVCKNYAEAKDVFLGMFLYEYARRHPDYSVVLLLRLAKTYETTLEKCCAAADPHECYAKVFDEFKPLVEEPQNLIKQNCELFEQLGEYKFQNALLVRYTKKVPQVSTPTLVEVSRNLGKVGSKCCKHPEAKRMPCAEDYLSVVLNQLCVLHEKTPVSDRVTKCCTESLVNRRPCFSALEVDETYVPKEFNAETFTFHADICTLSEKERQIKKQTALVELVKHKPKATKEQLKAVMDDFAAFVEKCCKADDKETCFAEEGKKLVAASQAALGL

Consider GTCTCAGCTACCTTACCGTATGTGGCCCAAAGCGTCTGGATGGCTATGAA (ssDNA, 3' (CH2)6-SH thiol (disulfide reduced with TCEP), immobilized on gold) [HSA aptamer], for which the binding result is recorded as “binds”.
